Assay results taken from IntAct's records for PubMed 21703453.

B1: Tip elongation aberrant protein Tea4 (Schizosaccharomyces pombe (strain ATCC 38366 / 972)), O60132 (parent)
chain: MLHMNSASSADSMEIMESHFDPTQQNDSTIIESRYSPEEYLEQSFEIQRIISGENSEPQTVASQEISDSQEEDTTLTSSQFEDCGTEYNEVVEDDEFRSEDEDDFMDEEEEYALYEAELSSSPSIHEEVIDCNFVHAIRGFEATVEGQVDATKGDMMILLDDSNSYWWLVKMCKNLAIGYLPAEYIETPSERLARLNKYKNSETSNSQQSVTLPPLDIVEKTLEAPSPNFRIKRVTFTCSSNSSDDEMDSENDYEAMVNRTVAENGLEIEFSDSSDSSLSAEYRSESEDHVTDSPAYVDLTELEGGFNQFNSTSFQSTSPLGLEIVETEINGSSTTADSKNSHSPYSKFSSAYPDAENSNISKINISIAGNKELYGNATQSDPSLYSTWIANKHKTASSATVDSPLRRSLSVDAMQSNASFSSYSSTSNTDKSLRPSSYSAVSESSNFTHDVSRDNKEISLNAPKSIIVSQSDSFDTSNVTQDAPNDVEKEPISGQMPNNLSVQSLKQLEVYPIRHSVSIEMPSEKLLSPRLYSSSTPSSPTKGFQKDDEEDSENRKQADKVELSPSSLLRQMSLPVDSSSQSDAQCTTSSVYITAERKAFSQSSIDLSTLSNHHVNNEINRRSFAGGFTSLADELSEMRELLHESPAPLECNEEMVIPTPELDASSAIPSSSISHDEDLLPRKNTEESTSSSSFSSLITSPASLQYDENPFKQSVVAELNNNSSSVPFVDSAHASDIHAYDNDHVSTKNKEFNRRLREFILDPDSLSGLYWSVKSAGVRASRRVSRNIEGESVSSDLDDIFANVLKGLSDEMASLLNTNR
B2: Tip elongation aberrant protein Tea4 (Schizosaccharomyces pombe (strain ATCC 38366 / 972)), O60132 (parent)
chain: B1 chain
partner: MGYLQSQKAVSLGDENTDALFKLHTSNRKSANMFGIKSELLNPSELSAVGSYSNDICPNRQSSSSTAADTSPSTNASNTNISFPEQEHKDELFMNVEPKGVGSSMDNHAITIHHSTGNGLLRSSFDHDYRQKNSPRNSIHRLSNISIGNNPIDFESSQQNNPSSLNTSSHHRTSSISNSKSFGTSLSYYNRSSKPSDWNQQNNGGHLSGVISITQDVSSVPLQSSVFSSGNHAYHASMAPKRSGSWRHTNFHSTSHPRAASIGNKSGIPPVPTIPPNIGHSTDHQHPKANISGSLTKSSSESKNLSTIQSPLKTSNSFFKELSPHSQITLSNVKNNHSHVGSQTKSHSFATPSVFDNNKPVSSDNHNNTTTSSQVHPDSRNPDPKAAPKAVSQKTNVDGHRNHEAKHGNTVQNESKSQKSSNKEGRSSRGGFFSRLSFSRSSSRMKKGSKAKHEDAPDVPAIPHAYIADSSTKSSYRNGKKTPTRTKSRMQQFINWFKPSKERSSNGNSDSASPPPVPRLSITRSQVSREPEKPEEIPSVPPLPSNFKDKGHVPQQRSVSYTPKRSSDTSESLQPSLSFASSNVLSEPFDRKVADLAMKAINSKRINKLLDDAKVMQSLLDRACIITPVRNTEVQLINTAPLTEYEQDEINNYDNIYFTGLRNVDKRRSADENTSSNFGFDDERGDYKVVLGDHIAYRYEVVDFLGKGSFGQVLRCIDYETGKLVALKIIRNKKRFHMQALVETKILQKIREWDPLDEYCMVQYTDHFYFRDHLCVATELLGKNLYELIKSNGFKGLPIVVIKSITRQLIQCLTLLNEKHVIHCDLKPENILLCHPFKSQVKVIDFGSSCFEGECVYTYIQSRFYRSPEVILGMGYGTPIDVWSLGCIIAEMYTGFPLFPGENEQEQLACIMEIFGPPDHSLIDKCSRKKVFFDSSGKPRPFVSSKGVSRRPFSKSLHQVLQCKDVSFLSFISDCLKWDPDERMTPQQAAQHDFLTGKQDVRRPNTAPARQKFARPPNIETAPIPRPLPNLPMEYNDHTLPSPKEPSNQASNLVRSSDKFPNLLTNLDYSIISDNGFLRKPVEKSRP

Experiments:
pp11_schpo dis2, P13681 [1] = variants of: B1; conditions: with pp11_schpo dis2, P13681
Sequence of pp11_schpo dis2, P13681 (P13681 whole entry): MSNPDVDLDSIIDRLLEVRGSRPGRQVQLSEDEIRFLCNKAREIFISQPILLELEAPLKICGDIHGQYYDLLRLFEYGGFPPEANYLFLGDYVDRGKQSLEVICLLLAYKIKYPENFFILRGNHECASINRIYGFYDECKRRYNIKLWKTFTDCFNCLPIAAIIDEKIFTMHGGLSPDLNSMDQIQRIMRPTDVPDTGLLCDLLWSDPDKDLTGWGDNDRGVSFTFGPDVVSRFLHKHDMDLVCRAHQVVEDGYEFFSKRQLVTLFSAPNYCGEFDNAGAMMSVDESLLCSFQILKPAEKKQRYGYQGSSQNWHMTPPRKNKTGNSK

pp11_schpo dis2, P13681 [2] = variants of: B1; conditions: with pp11_schpo dis2, P13681; remark: listed apart in the source
pom1_schpo pom1, Q09690 [3] = variants of: B2; conditions: with pom1_schpo pom1, Q09690
pom1_schpo pom1, Q09690 [4] = variants of: B2; conditions: with pom1_schpo pom1, Q09690; remark: listed apart in the source

Row | Variant | effect of a mutation on the interaction (pp11_schpo dis2, P13681 [1]) | effect of a mutation on the interaction (pp11_schpo dis2, P13681 [2]) | effect of a mutation on the interaction (pom1_schpo pom1, Q09690 [3]) | effect of a mutation on the interaction (pom1_schpo pom1, Q09690 [4])
1 | V235A;F237A | disrupting interaction |  |  | 
2 | W167A;W168A | disrupting interaction | decreasing interaction |  | 
3 | W167A;W168A |  |  | decreasing interaction | disrupting interaction
